# B1: PSD2 (parent)
# chain: LTHFSRRYCQCNPDDSTSEDGIHT
# Variants of: B1
# Assay: protein stability index of a GFP-peptide fusion (GPS, HEK-293T) (PSI 1-6); higher = more stable
# Settings: c terminus: a fixed tail appended
# 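Note: lentivirally expressed fusions sorted by FACS into six bins by GFP to DsRed ratio, PSI derived from sequencing read proportions per bin multiplied by bin number.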
row,Variant,protein stability index
1,LAHFSRRYCQCNPDDSTSEDGIHT,3.18
2,LPHFSRRYCQCNPDDSTSEDGIHT,3.26
3,LKHFSRRYCQCNPDDSTSEDGIHT,2.47
4,LGHFSRRYCQCNPDDSTSEDGIHT,3.67
5,LLHFSRRYCQCNPDDSTSEDGIHT,2.41
6,LMHFSRRYCQCNPDDSTSEDGIHT,2.86
7,LTHFSRRYCRCNPDDSTSEDGIHT,2.24
8,LTHFSRRYCLCNPDDSTSEDGIHT,2.63
9,LTHFSRRYCGCNPDDSTSEDGIHT,3.21
10,LTHFSRRYCICNPDDSTSEDGIHT,1.97
11,LTHFSRRYCHCNPDDSTSEDGIHT,2.88
12,LTHFSRRYCSCNPDDSTSEDGIHT,2.55
13,LTHFSRRYCCCNPDDSTSEDGIHT,2.63
14,LTHFSRRHCQCNPDDSTSEDGIHT,3.88
15,LTHFSRRSCQCNPDDSTSEDGIHT,3.93
16,LTHFSRRPCQCNPDDSTSEDGIHT,4.36
17,LTHFSRRGCQCNPDDSTSEDGIHT,3.57
18,LTHFSRRECQCNPDDSTSEDGIHT,5.36
19,LTHFSRRWCQCNPDDSTSEDGIHT,2.36
20,LTHFSRRTCQCNPDDSTSEDGIHT,4.18
21,NTHFSRRYCQCNPDDSTSEDGIHT,3.75
22,CTHFSRRYCQCNPDDSTSEDGIHT,3.89
23,DTHFSRRYCQCNPDDSTSEDGIHT,4.21
24,KTHFSRRYCQCNPDDSTSEDGIHT,3.49

row,Variant,protein stability index
1,GTHFSRRYCQCNPDDSTSEDGIHT,3.79
2,YTHFSRRYCQCNPDDSTSEDGIHT,1.62
3,LTHMSRRYCQCNPDDSTSEDGIHT,3.49
4,LTHPSRRYCQCNPDDSTSEDGIHT,4.18
5,LTHQSRRYCQCNPDDSTSEDGIHT,3.73
6,LTHNSRRYCQCNPDDSTSEDGIHT,4.51
7,LTHASRRYCQCNPDDSTSEDGIHT,4.42
8,LTHRSRRYCQCNPDDSTSEDGIHT,3.33
9,LTHGSRRYCQCNPDDSTSEDGIHT,4.57
10,LTHWSRRYCQCNPDDSTSEDGIHT,3.31
11,LTHVSRRYCQCNPDDSTSEDGIHT,3.16
12,LTNFSRRYCQCNPDDSTSEDGIHT,3.55
13,LTEFSRRYCQCNPDDSTSEDGIHT,3.61
14,LTCFSRRYCQCNPDDSTSEDGIHT,2.73
15,LTDFSRRYCQCNPDDSTSEDGIHT,4.38
16,LTYFSRRYCQCNPDDSTSEDGIHT,3.13
17,LTWFSRRYCQCNPDDSTSEDGIHT,2.16
18,LTLFSRRYCQCNPDDSTSEDGIHT,2.96
19,LTRFSRRYCQCNPDDSTSEDGIHT,3.62
20,LTQFSRRYCQCNPDDSTSEDGIHT,3.47
21,LTTFSRRYCQCNPDDSTSEDGIHT,3.28
22,LTAFSRRYCQCNPDDSTSEDGIHT,3.54
23,LTMFSRRYCQCNPDDSTSEDGIHT,2.62

# From the supplement of paper PMC10567573
